Data taken from paper PMC3814058 (Bioscience Reports, 2013).
No end group written: not given here.

Target: the molecule itself
Assay: non-reducing SDS/PAGE; overnight dialysis at 4°C against non-reducing (DTT-free) HK buffer, non-reducing sample buffer, 65°C 5 min, Coomassie stain; disulphide-linked dimer

Row | Protein | stoichiometry N
1 | GEETDLCSSPGRKKFPLKIFKKPLKK (domain or fragment, human, UniProt Q13586-1 662-685, looked up, not fully specified; inserted cysteine oxidized (84% dimerization), STIM1, human, residues 662–685 with Leu and Cys inserted after Asp666; The methods describe only the plasmid of the +LC–P675A–P682A form (pMS781); also called GFP–STIM1K dimer; oxidized GFP–STIM1K+LC; source: E. coli BL21 (DE3), purified, dialysed overnight against DTT-free HK buffer; not shown: GFP, N-terminal, kept) [GFP–STIM1K+LC (GFP–STIM1K with a leucine and cysteine insertion after residue 666), oxidized dimer] | 2
2 | {GFP}-GEETDLCSSPGRKKFALKIFKKALKK (domain or fragment, human, UniProt Q13586-1 662-685, looked up, also: disulfide-linked dimer via inserted cysteine, STIM1, human, residues 662–685 with Leu and Cys inserted after Asp666, P675A and P682A; also called pMS781; GFP-STIM1K dimer with both prolines mutated; source: E. coli BL21 (DE3), purified, dialysed overnight against DTT-free HK buffer; not shown: GFP, N-terminal, kept) [GFP–STIM1K+LC–P675A–P682A, oxidized dimer] | 2
